# In patent US20250320302A1:
# Molecular target: Spike protein of SARS-CoV-2 (isolate USA-WA1/2020) (SARS-CoV-2) (UniProt P0DTC2)
# Experiment: cell-based or functional assay
substance,measurement,value
S309 (antibody),"neutralization EC50 (viability of Vero E6 cells by CellTiter-Glo, 72 h after infection)",858 ng/mL
